Patent publication US20080194020A1, “Methods For Producing Dendritic Cells That Have Acquired Ctl-Inducing Ability” (Medical and Biological Laboratories Co., Ltd., priority 2004, published 2008)

Tests used:
[1] = test system: DC2.4 cells; assay: Polyubiquitination of antigenic protein taken up by DC2.4 cells (SDS-PAGE, Western blot with anti-polyubiquitin antibody); format: cell-based, mouse
Method: There are reports that when the KDEL sequence (Lys-Asp-Glu-Leu) (SEQ ID NO: 3), an endoplasmic reticulum localization sequence, is added to the carboxyl terminus of a protein localized in the ER lumen, the protein is repeatedly transported between the ER and Golgi apparatus, and ERAD of that protein is promoted. Therefore, DC2.4 cells were made to take up OVA with KDEL (SEQ ID NO: 3) added to its C-terminus, and OVA that was polyubiquitinated after uptake was observed by SDS-PAGE and Western blotting. OVA to which a KDEL sequence (SEQ ID NO: 3) was added was constructed and expressed as follows: using a plasmid comprising a DNA sequence encoding OVA as a template, PCR was performed using oligo-1 (SEQ ID NO: 10) and oligo-2 (SEQ ID NO: 11) as primers. The amplified PCR product of approximately 1100 bp was introduced into a pCR-Blunt vector (Invitrogen) to obtain vector-1. Oligo-3 (SEQ ID NO: 12) and oligo-4 (SEQ ID NO: 13) were annealed, and the obtained gene fragment of approximately 100 bp was introduced into the pCR-Blunt vector to obtain vector-2. Vector-2 was digested with SpeI, the obtained gene fragment of approximately 130 bp was introduced into vector-1 that had been digested with NheI to obtain vector-3. An approximately 1250-bp gene fragment (OVA-KDEL) obtained when vector-3 was digested with BamHI/SpeI was introduced into a vector for gene expression, and then expressed. […]

[2] = test system: DC2.4 cells; assay: MHC class I cross-presentation by DC2.4 cells to OT-I CD8+ T cells (IL-2 ELISA); format: cell-based, mouse; details: for antigenicity for stimulation of CD8+ OT-I T cells: FIG. 8a, OVA compared with bOVA
Excerpt: Whether knock-down of cellular components involved in ERAD decreases the cross-presentation of exogenous OVA antigen was examined using a system for evaluating the level of antigen presentation, which uses naive CD8^+ T cells from OT-I mice and DC2.4 cells. The DC2.4 cells used as a model of dendritic cells are of the H-2Kb mouse MHC class I haplotype. OT-I (H-2Kb) mice are transgenic mice expressing a T cell receptor (TCRα and β) that recognizes an antigenic peptide (SIINFEKL) (SEQ ID NO: 15) derived from OVA presented on the H-2Kb molecules. The CD8^+ cells of OT-I mice are activated when they recognize OVA peptides presented by BMDCs derived from H-2Kb mice or by DC2.4 cells. When OVA or bOVA is incubated with and affixed onto DC2.4 cells and the cells are further incubated with naive CD8^+ T cells of OT-I mice, the amount of IL-2 produced by OT-I CD8^+ T cells serves as an index of T-cell stimulation as a result of OVA antigen presented by DC2.4 cells.
Parental or knocked-down DC2.4 cells were pre-incubated in a culture medium supplemented with 50 μg mL^−1 polymyxin B for 30 minutes in the presence or absence of lactacystin or MG-132, and incubated with OVA (250 μg mL^−1) or SIINFEKL peptides (10 ng mL^−1) for six hours. The cells were washed, fixed with 1% paraformaldehyde, and aliquoted into microtiter plates (5×10^4 per well). 5×10^4 CD8^+ T cells purified from splenocytes of OT-1 mice using magnetic beads were added to each well and after a 24-hour incubation, the IL-2 secretion was measured by ELISA (BD Biosciences) in triplicate.
DC2.4 cells were incubated with OVA (0, 50, or 250 μg/mL) in RPMI1640/10c% FCS for six hours at 37° C., in the presence or absence of pig-derived HSP90 (10 μg/mL). After washing away the antigen and HSP, OT-I CD8^+ T cells were added, cells were cultured overnight at 37° C., and the amount of IL-2 comprised in the supernatant was measured by the ELISA method.
The timing of the addition of HSP90 (10 μg/mL) and OVA (250 μg/mL) to DC2.4 cells was varied, and the effect on class I antigen presentation was observed. (i) HSP90 was added first, DC2.4 cells were washed, and then OVA was added. (ii) HSP90 and OVA were added simultaneously to DC2.4 cells. (iii) OVA was added first, and after washing DC2.4 cells, HSP90 was added. The results obtained under these three conditions were compared. […]
Under condition (i), HSP90 was added to DC2.4 cells, the cells were cultured for 30 minutes and then washed to remove HSP90. […] DC2.4 cells activated with OVA by the above procedure were plated in a 96-well plate, OT-I mouse-derived CD8^+ T cells were added to this, and after culturing overnight, the amount of IL-2 released into the supernatant was measured by ELISA. […]

[3] = test system: DC2.4 cells; assay: MHC class II antigen presentation by DC2.4 cells to OT-II CD4+ T cells (IL-2 production); format: cell-based, mouse; details: FIG. 9 control: DC2.4 cells cultured with OVA, no NH4Cl
Method: DC2.4 cells pretreated in the presence of NH4Cl were cultured with OVA, and then the stimulation of OT-I CD8^+ T cells in response to MHC class I antigen presentation (circles) and stimulation of OT-II CD4^+ T cells in response to MHC class II antigen presentation (triangles) was determined by measuring IL-2 production levels. IL-2 production level in the presence of NH4Cl was expressed as a ratio relative to the control (IL-2 production was 700 pg/mL relative to OT-I, and 20 pg mL relative to OT-II).

[4] = test system: DC2.4 cells
Method: Intracellular localization of foreign antigens was examined by cell fractionation methods. Chicken ovalbumin (OVA) was used as an antigen model, and DC2.4 (haplotype H-2Kb), a cultured cell line of mouse dendritic cells, was used as a model for dendritic cells. […] BMDCs with a haplotype of H-2Kb, the same as that of DC2.4, were used as the control. BMDCs were induced from the bone marrow cells of C57BL/6 mice (SLC) in RPMI-1640 supplemented with 5% FCS using 5 ng/mL GM-CSF (MEL), and those cells purified by magnetic beads after five days of culturing were used.
DC2.4 cells made to take up bOVA antigens were suspended in 10 mM Tris-HCl (pH7.4) containing 250 mM sucrose, this was homogenized using glass beads, centrifuged for 30 minutes at 250,000×g, and then fractionated. The supernatant was used as the soluble fraction; the precipitates were suspended in the same buffer as described above and used as the microsomal fraction. A fixed amount was incubated in the presence or absence of 1% TritonX-100, and together with or without 100 μg mL^−1 trypsin. Before collecting bOVA, soybean trypsin inhibitor (Sigma) was added at 500 μg mL^−1.

[5] = test system: DC2.4 cells; assay: Uptake of antigenic protein into DC2.4 cells; format: cell-based, mouse; details: CHIP-knocked-down DC2.4 cells
Method: Next, DC2.4 cells were incubated for a set amount of time with OVA in the presence or absence of lactacystin (LC), and OVA taken up into the cells was measured. OVA taken up into cells in the presence or absence of Hsp90 was measured similarly.

Molecule | polyubiquitination of the substrate compared to OVA ([1]; DC2.4 cells made to take up OVA with KDEL added to its C-terminus) | antigen presentation level compared to OVA (OT-I CD8+ T cells) ([2]; DC2.4 cells, data not shown) | IL-2 production, OT-II CD4+ T cells [3] | antigenicity for stimulation of CD8+ OT-I T cells [2] | IL-2 production, OT-I CD8+ T cells ([2]; FIG. 9 control: DC2.4 cells cultured with OVA, no NH4Cl) | share of bOVA taken up by cells recovered as trypsin-resistant bOVA from the microsomal fraction [4] | polyubiquitination of bOVA ([1]; CHIP-knocked-down DC2.4 cells) | uptake of bOVA relative to parental DC2.4 cells [5]
OVA-KDEL: OVA with the endoplasmic reticulum localization sequence KDEL added to its C-terminus, SEQ ID NO: 14 (protein) MGSIGAASMEFCFDVFKELKVHHANENIFYCPIAIMSALAMVYLGAKDSTRTQINKVVRFDKLPGFGDSIEAQCGTSVNVHSSLRDILNQITKPNDVYSFSLASRLYAEERYPILPEYLQCVKELYRGGLEPINFQTAADQARELINSWVESQTNGIIRNVLQPSSVDSQTAMVLVNAIVFKGLWEKAFKDEDTQAMPFRVTEQESKPVQMMYQIGLFRVASMASEKMKILELPFASGTMSMLVLLPDEVSGLEQLESIINFEKLTEWTSSNVMEERKIKVYLPRMKMEEKYNLTSVLMAMGITDVFSSSANLSGISSAESLKISQAVHAAHAEINEAGREVVGSAEAGVDAASVSEEFRADHPFLFCIKHIATNAVLFFGRCVSPASAEDYEYPSRSNGTKNNTSQASKDEL | significantly promoted polyubiquitination | clearly found to be stronger | – | – | – | – | – | –
OVA: Chicken ovalbumin used as an antigen model (protein) GSIGAASMEFCFDVFKELKVHHANENIFYCPIAIMSALAMVYLGAKDSTRTQINKVVRFDKLPGFGDSIEAQCGTSVNVHSSLRDILNQITKPNDVYSFSLASRLYAEERYPILPEYLQCVKELYRGGLEPINFQTAADQARELINSWVESQTNGIIRNVLQPSSVDSQTAMVLVNAIVFKGLWEKAFKDEDTQAMPFRVTEQESKPVQMMYQIGLFRVASMASEKMKILELPFASGTMSMLVLLPDEVSGLEQLESIINFEKLTEWTSSNVMEERKIKVYLPRMKMEEKYNLTSVLMAMGITDVFSSSANLSGISSAESLKISQAVHAAHAEINEAGREVVGSAEAGVDAASVSEEFRADHPFLFCIKHIATNAVLFFGRCVSP | – | – | 20 pg·mL | equally antigenic | 700 pg/mL | – | – | –
bOVA: OVA antigen recovered with streptavidin beads (biotin-labeled samples) (protein) GSIGAASMEFCFDVFKELKVHHANENIFYCPIAIMSALAMVYLGAKDSTRTQINKVVRFDKLPGFGDSIEAQCGTSVNVHSSLRDILNQITKPNDVYSFSLASRLYAEERYPILPEYLQCVKELYRGGLEPINFQTAADQARELINSWVESQTNGIIRNVLQPSSVDSQTAMVLVNAIVFKGLWEKAFKDEDTQAMPFRVTEQESKPVQMMYQIGLFRVASMASEKMKILELPFASGTMSMLVLLPDEVSGLEQLESIINFEKLTEWTSSNVMEERKIKVYLPRMKMEEKYNLTSVLMAMGITDVFSSSANLSGISSAESLKISQAVHAAHAEINEAGREVVGSAEAGVDAASVSEEFRADHPFLFCIKHIATNAVLFFGRCVSP | – | – | – | equally antigenic | – | ≥ 70% | 34% | about 70%
